Experimental findings from PMC3563542, “Refolding and Enzyme Kinetic Studies on the Ferrochelatase of the Cyanobacterium Synechocystis sp. PCC 6803” (PLoS ONE, 2013) are described below.

This data set deals with the molecule itself. Kind of data set: SEC; native size exclusion chromatography, Sephacryl S-100-HR, buffer B (50 mM Tris pH 8, 0.1 M NaCl, 0.5 M KCl, 20% glycerol, 20 mM Na-cholate, 0.1 mM TCEP) as eluent; monomer separated from higher molecular weight forms. In general terms: In gel filtration, larger molecules generally elute earlier.

B1: His-FeCh, recombinant type II ferrochelatase of Synechocystis sp. PCC 6803 with N-terminal His6-tag (enzyme, UniProt P54225 1-387, looked up)
chain: MGRVGVLLLNLGGPEKLEDVRPFLFNLFADPEIIRLPFPWLQKPLAWLISTLRAKKSQANYAEIGGGSPLLQITEAQASALTTRLERLGQDAKVYIGMRYWHPFTEEAVEKIKGDRLQRLVILPLYPHFSISTSGSSFRVLEEMWHNDPSLRQLDYSLIPSWYDHPGYLQAMADLIAQELKKFPNPDQAHIFFSAHGVPQSYVDEAGDPYQAEIEACTRLIMRTLDRPNQYTLAYQSRVGPVEWLKPYTEEALQKLGAEGIDDLLVVPISFVSEHIETLQEIDIEYREIAEEAGIDNFQRVPALNTHPVFIDALAQMVMDSLNDPPCTFETVPHPKKNMKMYPQERWEWGLTTAAEVWNGRLAMLGFIALLVELISGQGPLHFVGLL
notes: Ferrochelatase (hemH) of Synechocystis sp; PCC 6803, GenBank BAA10523.1, amplified from genomic DNA from the start codon to the stop codon; full length with the C-terminal CAB domain; tagged protein 47 kDa; also called full length His-FeCh; not shown: His6, N-terminal, kept
For the protein B1, the binding result was “binds”.

B2: FeCh, recombinant full-length ferrochelatase of Synechocystis sp. PCC 6803 after removal of the N-terminal His6-tag (enzyme, UniProt P54225 1-387, looked up)
chain: B1 chain
notes: Ferrochelatase (hemH) of Synechocystis sp; PCC 6803, GenBank BAA10523.1, full length with the C-terminal CAB domain; monomer 44 kDa; also called full-length FeCh; source: E. coli, His-FeCh after IMAC, His6-tag removed with thrombin, purified (HisGraviTrap, Sephacryl S-100-HR); not shown: His6, N-terminal, cleaved
B2: the binding result is “binds”.
